Data on three substances can be found in paper PMC5384658, “The evolution of Sex-linked barring alleles in chickens involves both regulatory and coding changes in CDKN2A” (PLoS Genetics, 2017).

Series [1] deals with chicken MDM2_(204-298) (chicken).
The conditions of series [2]: ultracentrifugation, far-UV CD and NMR; ref [21], [22]; cited from earlier work. The source says: The striking phenotypic differences associated with the B0, B1, and B2 alleles imply that the two missense mutations must affect ARF function since all three alleles share the two non-coding changes associated with Sex-linked barring (Fig 1). To learn more about the specific effects of the coding ARF mutations we performed biophysical studies on peptides corresponding to the N-terminus of wild-type and mutant chicken ARF (ARF1-14^WT, ARF1-14^V9D, ARF1-14^R10C) and purified chicken MDM2_204-298. Previously, using a combination of ultracentrifugation, far-UV circular dichroism (CD) and NMR exper ...

In turn, “ARF_(1-14)^R10C peptide (N-terminus of chicken ARF with R10C, B2 allele) (from UniProt A0A8V0X483 1-14)” came in with a p53-luc luciferase reporter activity in U2OS cells transfected with chicken ARF (coding region, pcDNA3.1) carrying R10C, compared to wild-type chicken ARF (% of wild type) in series [1] of 77.

“ARF_(1-14)^V9D peptide (N-terminus of chicken ARF with V9D, B1 allele) (from UniProt A0A8V0X483 1-14)”: the p53-luc luciferase reporter activity in U2OS cells transfected with chicken ARF (coding region, pcDNA3.1) carrying V9D, compared to wild-type chicken ARF (% of wild type) in series [1] turned out to be 58.

Regarding “MDM2_210-304: human MDM2 XP_005268929 residues 210-304, corresponding to chicken MDM2_204-298”, the “structure in free state” value in series [2] is on record as “intrinsically disordered in their free states”.
